In patent publication US20080279850A1:

Tests used:
[1] = molecular target: T1, CD37 (human) (UniProt P11049)
T1 sequence: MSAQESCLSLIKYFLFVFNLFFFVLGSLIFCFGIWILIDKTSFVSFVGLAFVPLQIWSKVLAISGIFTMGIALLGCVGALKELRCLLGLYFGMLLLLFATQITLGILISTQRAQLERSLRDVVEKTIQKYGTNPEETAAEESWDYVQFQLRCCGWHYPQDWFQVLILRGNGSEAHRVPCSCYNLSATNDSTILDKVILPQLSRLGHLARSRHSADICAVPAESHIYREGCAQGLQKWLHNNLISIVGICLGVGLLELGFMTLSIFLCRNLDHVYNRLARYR

[2] = molecular target: T1, CD37 (human); remark: listed apart in the source

Substance	Annexin V-PI staining of Ramos cells after 24 hours [1]	Annexin V Positive, Bjab cells, 20 µg/mL SMIP with goat anti-human IgG crosslinking (Annexin V Positive) [2]
TRU-016, protein A purified (unfractionated) (Fc fusion)	32.8%	
TRU-016 [G28-1 scFv VH11S (SSC-P)H WCH2 WCH3] (Fc fusion)		30.6
